In article PMC8115485 (Nature Communications, 2021):
Residue numbers refer to the chain shown, from its start. In names and notes the source's numbering stands. Blank lines part the entries; values can stand above or below the molecule they belong to.

Assays:
HisH [1] = target: T1, HisH (Thermotoga maritima, UniProt Q9X0C8, C84S); test: NMR titration in the presence of ProFAR; type: binding; set-up: HisFH-hC84S complex; with HisF
T1 sequence (Q9X0C8 1-201 C84S): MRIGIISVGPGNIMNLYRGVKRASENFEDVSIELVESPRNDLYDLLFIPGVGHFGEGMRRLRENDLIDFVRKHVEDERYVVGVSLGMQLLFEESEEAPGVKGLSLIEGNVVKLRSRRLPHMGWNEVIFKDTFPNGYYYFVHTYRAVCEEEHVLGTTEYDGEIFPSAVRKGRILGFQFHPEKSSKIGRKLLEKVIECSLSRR
T1 sequence (Q9X0C6 1-253 partner): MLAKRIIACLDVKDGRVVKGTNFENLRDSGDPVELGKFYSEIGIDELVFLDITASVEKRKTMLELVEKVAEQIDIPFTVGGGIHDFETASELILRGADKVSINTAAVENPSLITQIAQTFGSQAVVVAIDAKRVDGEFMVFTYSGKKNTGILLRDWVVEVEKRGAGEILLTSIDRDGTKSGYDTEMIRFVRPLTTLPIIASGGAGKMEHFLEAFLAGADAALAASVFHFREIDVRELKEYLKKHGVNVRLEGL

HisH [2] = target: T2, HisH (Thermotoga maritima, UniProt Q9X0C8, C84A); test: X-ray crystal structure at […] Å; type: binding
T2 construct: HisFH-hC84A complex; with HisF
T2 sequence (Q9X0C8 1-201 C84A): T1 sequence (Q9X0C8 1-201 C84S) with S84A
T2 sequence (Q9X0C6 1-253 partner): T1 sequence (Q9X0C6 1-253 partner)

HisH [3] = target: T1, HisH; test: biochemical
HisH [4] = target: T3, HisH (Thermotoga maritima, UniProt Q9X0C8); test: NMR titration (methyl TROSY); type: binding; set-up: WT HisFH complex; with HisF
T3 sequence (Q9X0C8 1-201): T1 sequence (Q9X0C8 1-201 C84S) with S84C
T3 sequence (Q9X0C6 1-253 partner): T1 sequence (Q9X0C6 1-253 partner)

HisF = target: T4, HisF (Thermotoga maritima, UniProt Q9X0C6); test: X-ray crystal structure at […] Å; NMR titration; glutaminase activation; type: binding
T4 construct: HisF-wt without tag, in the HisFH-hC84A complex; with HisH (hC84A)
T4 sequence (Q9X0C6 1-253): T1 sequence (Q9X0C6 1-253 partner)
T4 sequence (Q9X0C8 1-201 C84A partner): T1 sequence (Q9X0C8 1-201 C84S) with S84A

[5] = target: T5, HisF, cyclase subunit of imidazole glycerol phosphate synthase from Thermotoga maritima, wild type, without … (Thermotoga maritima, UniProt Q9X0C6 1-253); test: crystal structure; HisFH-hC84A complex at 30 mg/ml in 10 mM Tris-HCl pH 8.0, 100 mM NaCl; hanging drop, 18 °C, 10 mM L-glutamine, 10 mM ProFAR added by soaking; 2.06 Å; three HisFH complexes in the asymmetric unit; conditions: both partners purified
T5 construct: HisF of Thermotoga maritima, Uniprot ID Q9X0C6; Crystallised as the HisFH-hC84A complex; also called HisF-wt; source: E. coli, expressed separately; cell lysate combined with that of HisH before the NiNTA column, complex purified (NiNTA, SEC)
T5 sequence: T1 sequence (Q9X0C6 1-253 partner)

[6] = target: T6, HisF, cyclase subunit of imidazole glycerol phosphate synthase from Thermotoga maritima, wild type (NMR … (Thermotoga maritima, UniProt Q9X0C6 1-253)); test: NMR spectra (TROSY, methyl-TROSY) of the complex reconstituted by SEC; HisF and HisH combined at a 1.3/1 ratio after TEV digestion, free HisF removed on Superdex 75 in NMR buffer (50 mM NaCl, 20 mM HEPES pH 7.3, 1 mM DTT); spectra at 30 °C, 50-150 µM protein; conditions: both partners purified
T6 construct: HisF of Thermotoga maritima, Uniprot ID Q9X0C6; Deuterated and 15N labelled where HisF is observed; also called WT HisF; HisF-wt; source: E. coli BL21-CodonPlus (DE3)-RIL or BL21 Gold (DE3), purified (heat shock, NiNTA, TEV digestion, SEC); not shown: His-tag, N-terminal, cleaved
T6 sequence: T1 sequence (Q9X0C6 1-253 partner)

[7] = target: T7, HisF from Thermotoga maritima, K19A mutant (Thermotoga maritima, UniProt Q9X0C6 1-253, fK19A); test: as above; conditions: both partners purified
T7 construct: HisF of Thermotoga maritima, Uniprot ID Q9X0C6; also called fK19A; source: E. coli, purified
T7 sequence (looked up): T1 sequence (Q9X0C6 1-253 partner) with K19A

[8] = target: T8, HisF from Thermotoga maritima, V48A mutant (Thermotoga maritima, UniProt Q9X0C6 1-253, fV48A); test: as above; conditions: both partners purified
T8 construct: HisF of Thermotoga maritima, Uniprot ID Q9X0C6; also called fV48A; source: E. coli, purified
T8 sequence (looked up): T1 sequence (Q9X0C6 1-253 partner) with V48A

[9] = target: T9, HisF from Thermotoga maritima, F23A mutant (Thermotoga maritima, UniProt Q9X0C6 1-253, fF23A); test: as above; conditions: both partners purified
T9 construct: HisF of Thermotoga maritima, Uniprot ID Q9X0C6; also called fF23A; source: E. coli, purified
T9 sequence (looked up): T1 sequence (Q9X0C6 1-253 partner) with F23A

[10] = target: T10, HisF from Thermotoga maritima, D98E mutant (Thermotoga maritima, UniProt Q9X0C6 1-253, fD98E); test: as above; conditions: both partners purified
T10 construct: HisF of Thermotoga maritima, Uniprot ID Q9X0C6; also called fD98E; HisF-D98E; source: E. coli, purified
T10 sequence (looked up): T1 sequence (Q9X0C6 1-253 partner) with D98E

Molecule: NC(=O)NC[C@H](N)C(=O)O [Albizziin]
NMR titration in the presence of ProFAR (HisH [1]): for the HisFH–hC84S mutant the active conformation is clearly visible

Molecule: NC(=O)CC[C@H](N)C(=O)O [Gln]
X-ray crystal structure at 2.06 Å (HisH [2]): The asymmetric unit contains three HisFH complexes
Kd (HisH [3]): 1700 ± 100 µM
Kd (HisH [4]): 1300 ± 100 µM

Molecule: NC(=O)c1ncn([C@@H]2O[C@H](COP(=O)(O)O)[C@@H](O)[C@H]2O)c1N=CN[C@@H]1O[C@H](COP(=O)(O)O)[C@@H](O)[C@H]1O [ProFAR]
X-ray crystal structure at 2.06 Å; NMR titration; glutaminase activation (HisF): the HisF active site shows unambiguous electron density for a ProFAR molecule

More lines, now with the values ahead:

binding result [5]: binds
B1: HisH, glutaminase subunit of imidazole glycerol phosphate synthase from Thermotoga maritima, C84A mutant (crystallisation construct) (enzyme)
chain: T1 sequence (Q9X0C8 1-201 C84S) with S84A
notes: HisH of Thermotoga maritima, Uniprot ID Q9X0C8; also called hC84A; HisH-C84A; source: E. coli, expressed separately; cell lysate combined with that of HisF before the NiNTA column, complex purified (NiNTA, SEC)

binding result [6]: binds
binding result [7]: binds
binding result [8]: binds
binding result [9]: binds
binding result [10]: binds
B2: HisH, glutaminase subunit of imidazole glycerol phosphate synthase from Thermotoga maritima, C84S mutant (enzyme, UniProt Q9X0C8 1-201, looked up)
chain: T1 sequence (Q9X0C8 1-201 C84S)
notes: HisH of Thermotoga maritima, Uniprot ID Q9X0C8; Deuterated, ILMVA methyl labelled or histidine ring-13C2 labelled for NMR; also called hC84S; HisH-C84S; source: E. coli BL21-CodonPlus (DE3)-RIL, purified (heat shock, NiNTA, TEV digestion, SEC); not shown: His-tag, N-terminal, cleaved

binding result [6]: binds
B3: HisH from Thermotoga maritima, C84A mutant (NMR samples) (enzyme, UniProt Q9X0C8 1-201, looked up)
chain: T1 sequence (Q9X0C8 1-201 C84S) with S84A
notes: HisH of Thermotoga maritima, Uniprot ID Q9X0C8; probably the same construct as m2, kept apart because the state of the tag is told only for the labelled proteins; also called hC84A; source: E. coli BL21-CodonPlus (DE3)-RIL, purified (heat shock, NiNTA, TEV digestion, SEC); not shown: His-tag, N-terminal, cleaved
